# B1: SARS-CoV spike protein S1+S2, His-tagged (domain or fragment)
# chain: not shown
# Biological target: Fc-conjugated human angiotensin converting enzyme 2 (ACE2-Fc) (human, UniProt Q9BYF1)
# Test: ELISA
# Fc-conjugated human angiotensin converting enzyme 2 (ACE2-Fc), sequence (Q9BYF1 18-740): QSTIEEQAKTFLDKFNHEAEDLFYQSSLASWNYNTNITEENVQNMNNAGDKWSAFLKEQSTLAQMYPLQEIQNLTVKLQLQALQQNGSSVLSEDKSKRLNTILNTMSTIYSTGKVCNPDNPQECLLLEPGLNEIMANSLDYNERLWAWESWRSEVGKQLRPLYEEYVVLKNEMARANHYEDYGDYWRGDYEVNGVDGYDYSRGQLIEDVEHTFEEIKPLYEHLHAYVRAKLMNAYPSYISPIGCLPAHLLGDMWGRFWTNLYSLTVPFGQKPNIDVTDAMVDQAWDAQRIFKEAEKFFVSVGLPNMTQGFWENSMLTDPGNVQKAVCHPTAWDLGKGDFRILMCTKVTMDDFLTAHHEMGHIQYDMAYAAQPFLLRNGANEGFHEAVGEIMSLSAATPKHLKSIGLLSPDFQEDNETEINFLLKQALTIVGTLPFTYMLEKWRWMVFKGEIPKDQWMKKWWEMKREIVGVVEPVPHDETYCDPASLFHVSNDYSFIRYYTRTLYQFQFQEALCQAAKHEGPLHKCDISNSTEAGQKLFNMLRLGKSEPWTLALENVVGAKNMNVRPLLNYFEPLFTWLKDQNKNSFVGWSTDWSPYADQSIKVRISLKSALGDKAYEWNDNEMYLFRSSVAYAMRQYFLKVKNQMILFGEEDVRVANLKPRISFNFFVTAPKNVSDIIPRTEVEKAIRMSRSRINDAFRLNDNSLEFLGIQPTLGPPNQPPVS
binder,measurement,value
B1,EC50,13.9 nM

# — paper doi:10.1101/2020.10.22.351056 (bioRxiv, 2020)
